Experimental data reported in IntAct's records for PubMed 17210637.

Target: merl_human NF2 (UniProt P35240)
Chain of UniProt P35240 (P35240 whole entry): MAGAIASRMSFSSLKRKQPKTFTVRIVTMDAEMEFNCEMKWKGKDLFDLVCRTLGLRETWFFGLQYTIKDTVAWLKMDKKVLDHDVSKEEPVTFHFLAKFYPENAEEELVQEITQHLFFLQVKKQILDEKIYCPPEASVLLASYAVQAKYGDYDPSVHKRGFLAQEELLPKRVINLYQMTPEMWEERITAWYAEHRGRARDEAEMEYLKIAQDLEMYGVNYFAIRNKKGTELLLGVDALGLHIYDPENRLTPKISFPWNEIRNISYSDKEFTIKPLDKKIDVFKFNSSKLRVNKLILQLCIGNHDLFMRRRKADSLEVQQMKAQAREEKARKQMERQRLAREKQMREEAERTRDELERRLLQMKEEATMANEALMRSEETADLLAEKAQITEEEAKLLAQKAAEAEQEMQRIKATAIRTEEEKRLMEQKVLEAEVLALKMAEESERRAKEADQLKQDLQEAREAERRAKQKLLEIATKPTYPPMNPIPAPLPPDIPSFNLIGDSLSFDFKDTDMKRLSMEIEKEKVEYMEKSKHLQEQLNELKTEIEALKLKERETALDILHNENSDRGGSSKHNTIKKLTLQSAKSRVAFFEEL

- effect of a mutation on the interaction: decreasing interaction
Substance: GTP-binding protein 4 (Homo sapiens) (from UniProt Q9BZE4) R394A;K395A
